The values that follow come from patent US20020102234A1.

This assay addresses human IL-1R1 (IL-1 receptor type I), full length, expressed in transfected Jurkat E6.1 cells (human) (UniProt P14778). Nature of the assay: cell-based or functional assay.
UniProt P14778, sequence (P14778 18-569): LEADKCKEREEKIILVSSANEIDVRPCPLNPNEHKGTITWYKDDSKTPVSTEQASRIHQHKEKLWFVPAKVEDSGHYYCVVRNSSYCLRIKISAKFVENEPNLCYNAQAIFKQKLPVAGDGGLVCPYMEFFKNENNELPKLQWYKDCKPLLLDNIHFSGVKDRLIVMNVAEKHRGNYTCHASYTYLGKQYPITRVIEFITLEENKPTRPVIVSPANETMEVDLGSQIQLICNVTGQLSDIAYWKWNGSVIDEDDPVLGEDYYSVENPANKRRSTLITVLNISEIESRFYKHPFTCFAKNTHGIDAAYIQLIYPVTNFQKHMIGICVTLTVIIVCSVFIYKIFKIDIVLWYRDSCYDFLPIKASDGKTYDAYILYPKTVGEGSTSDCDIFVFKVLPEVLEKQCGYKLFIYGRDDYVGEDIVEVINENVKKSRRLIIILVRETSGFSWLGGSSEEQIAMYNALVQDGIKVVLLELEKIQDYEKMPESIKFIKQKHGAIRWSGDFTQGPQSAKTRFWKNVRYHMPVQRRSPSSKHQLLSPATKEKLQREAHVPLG

On to “recombinant human IL-1RA (IL-1 receptor antagonist) (from UniProt P18510 26-177) (ligand)”, for which the excess over IL-1α giving 50% inhibition of the NFκB reporter response (fold excess over IL-1α) was found to be 1000.
